Experiment in all cases: binding ELISA, biotinylated peptide on neutravidin plate, Fab titrated
A general note: ELISA stands for enzyme-linked immunosorbent assay.

For one assay, the target named is T1, Peptide-137.
T1 peptide: TCSAGATWPWPICL

Another assay addresses T2, Peptide-141.
T2 peptide: TCSAGATYTWPKCF

The target of a further assay is T3, Peptide-148.
T3 peptide: SCSAGAHYPWPQCF

In another assay the target is T4, Peptide-146.
T4 peptide: TCSAGAAYSWPACF

In a further assay the target is T5, Peptide-143.
T5 peptide: TCAAGAAWGWPLCF

In the next assay the target is T6, Peptide-147.
T6 peptide: LCAAGATYPWPTCL

In the next assay the target is T7, Peptide-145.
T7 peptide: TCSAGAAYPWPLCL

Another assay has as its target T8, Peptide-138.
T8 peptide: LCAAGASWPWPVCL

The target of the next assay is T9, Peptide-149.
T9 peptide: TCSAGATYEWPRCL

Another assay addresses T10, Peptide-139.
T10 peptide: TCSAGASYPWPLCL

In the next assay the target is T11, Peptide-140.
T11 peptide: TCAAGAAWPWPQCL

We go through 1 molecule from US20260242478A1 (published 2026).

B1: anti-CD28 Fab (Fab, V domains shown)
VH: QVQLVQSGAEVKKPGASVKVSCKASGYTFTSYYIHWVRQAPGQGLEWIGSIYPGNVNTNYNEKFKDRATLTVDTSISTAYMELSRLRSDDTAVYFCTRSHYGLDWNFDVWGQGTTVTVSS
VL: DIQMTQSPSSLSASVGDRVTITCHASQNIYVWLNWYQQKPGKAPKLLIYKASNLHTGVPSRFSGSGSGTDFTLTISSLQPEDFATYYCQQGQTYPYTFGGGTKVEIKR
In the case of B1, the EC50 – broadly, the concentration needed to bring the measured effect to its halfway point – with Peptide-137 stood at 2.1 nM; with Peptide-141, 15.7 nM; with Peptide-148, 19 nM; with Peptide-146, 24.3 nM; in the assay with Peptide-143, 5.6 nM; in the assay with Peptide-147, 25.8 nM. Further, the EC50 with Peptide-145 came to 4.4 nM; in the assay with Peptide-138 it was 13.1 nM; with Peptide-149, 12.8 nM; in the assay with Peptide-139, 5.3 nM; with Peptide-140, 2.6 nM.
